This is an account of results in paper PMC10397247.

Assay [1] concerns the target T1, O9-bN.
T1 chain: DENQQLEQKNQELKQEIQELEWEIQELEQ
Nature of the assay: two-hybrid library CCNG1.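 Further: natural log of median RNA to DNA barcode read ratio; higher means stronger binding.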

Assay [2] deals with T2, 4H2354-AA.
T2 chain: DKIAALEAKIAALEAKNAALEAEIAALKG
Nature of the assay: two-hybrid library CCmax.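 Further: natural log of median RNA to DNA barcode read ratio; higher means stronger binding.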

For assay [3], the target named is T3, 4H2393-AA.
T3 chain: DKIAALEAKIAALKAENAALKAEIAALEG
Nature of the assay: two-hybrid library CCmax.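 Further: natural log of median RNA to DNA barcode read ratio; higher means stronger binding.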 Particulars: mean of both orientations.

Assay [4] has as its target T4, 4H2466-AA.
T4 chain: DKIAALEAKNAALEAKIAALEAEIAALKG
Nature of the assay: two-hybrid library CCmax.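 Further: natural log of median RNA to DNA barcode read ratio; higher means stronger binding.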

Assay [5] has as its target T5, 4H2505-AA.
T5 chain: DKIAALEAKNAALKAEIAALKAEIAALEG
Nature of the assay: two-hybrid library CCmax. Particulars: mean of both orientations.

The target of assay [6] is T6, 4H2575-AA.
T6 chain: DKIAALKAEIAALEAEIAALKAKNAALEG
Description: two-hybrid library CCmax. Particulars: mean of both orientations.

Assay [7] concerns the target T7, 4H2617-AA.
T7 chain: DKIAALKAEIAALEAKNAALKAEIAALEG
Nature of the assay: two-hybrid library CCmax. Particulars: mean of both orientations.

Assay [8] has as its target T8, 4H2642-AA.
T8 chain: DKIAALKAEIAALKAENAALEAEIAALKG
Nature of the assay: two-hybrid library CCmax. Particulars: mean of both orientations.

Assay [9] addresses T9, 4H2729-AA.
T9 chain: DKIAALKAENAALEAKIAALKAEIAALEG
Nature of the assay: two-hybrid library CCmax. Particulars: mean of both orientations.

The target in assay [10] is T10, 4H2754-AA.
T10 chain: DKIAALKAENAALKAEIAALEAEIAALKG
Description: two-hybrid library CCmax. Particulars: mean of both orientations.

Assay [11] concerns the target T11, 4H2837-AA.
T11 chain: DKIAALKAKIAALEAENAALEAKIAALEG
Description: two-hybrid library CCmax. Particulars: mean of both orientations.

Assay [12] has as its target T12, 4H2883-AA.
T12 chain: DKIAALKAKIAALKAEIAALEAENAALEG
Nature of the assay: two-hybrid library CCmax. Particulars: mean of both orientations.

For assay [13], the target named is T13, 4H2944-AA.
T13 chain: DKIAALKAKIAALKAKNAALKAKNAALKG
Nature of the assay: two-hybrid library CCmax. Particulars: mean of both orientations.

Assay [14] has as its target T14, 4H2949-AA.
T14 chain: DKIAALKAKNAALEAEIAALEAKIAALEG
Description: two-hybrid library CCmax. Particulars: mean of both orientations.

For assay [15], the target named is T15, 4H3112-AA.
T15 chain: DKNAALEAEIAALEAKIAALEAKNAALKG
Nature of the assay: two-hybrid library CCmax. Particulars: mean of both orientations.

Assay [16] addresses T16, 4H317-AA.
T16 chain: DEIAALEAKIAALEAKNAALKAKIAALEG
Nature of the assay: two-hybrid library CCmax. Particulars: mean of both orientations.

The target of assay [17] is T17, 4H3343-AA.
T17 chain: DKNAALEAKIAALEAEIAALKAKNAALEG
Description: two-hybrid library CCmax. Particulars: mean of both orientations.

Assay [18] concerns the target T18, 4H335-AA.
T18 chain: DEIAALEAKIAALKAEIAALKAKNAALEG
Nature of the assay: two-hybrid library CCmax. Particulars: mean of both orientations.

Assay [19] has as its target T19, 4H342-AA.
T19 chain: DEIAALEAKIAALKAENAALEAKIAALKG
Nature of the assay: two-hybrid library CCmax. Particulars: mean of both orientations.

Assay [20] has as its target T20, 4H3427-AA.
T20 chain: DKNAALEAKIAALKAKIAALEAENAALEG
Nature of the assay: two-hybrid library CCmax. Particulars: mean of both orientations.

Assay [21] addresses T21, 4H3606-AA.
T21 chain: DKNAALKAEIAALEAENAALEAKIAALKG
Nature of the assay: two-hybrid library CCmax. Particulars: mean of both orientations.

For assay [22], the target named is T22, 4H3627-AA.
T22 chain: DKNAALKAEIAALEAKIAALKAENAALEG
Nature of the assay: two-hybrid library CCmax. Particulars: mean of both orientations.

The target of assay [23] is T23, 4H3655-AA.
T23 chain: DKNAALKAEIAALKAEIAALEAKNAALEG
Nature of the assay: two-hybrid library CCmax. Particulars: mean of both orientations.

The target in assay [24] is T24, 4H3844-AA.
T24 chain: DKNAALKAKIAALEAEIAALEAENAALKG
Nature of the assay: two-hybrid library CCmax. Particulars: mean of both orientations.

Assay [25] deals with T25, 4H3921-AA.
T25 chain: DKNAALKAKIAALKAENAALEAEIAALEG
Nature of the assay: two-hybrid library CCmax. Particulars: mean of both orientations.

Assay [26] addresses T26, 4H429-AA.
T26 chain: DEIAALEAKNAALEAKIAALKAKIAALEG
Description: two-hybrid library CCmax. Particulars: mean of both orientations.

Assay [27] addresses T27, 4H454-AA.
T27 chain: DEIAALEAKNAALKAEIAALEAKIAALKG
Description: two-hybrid library CCmax. Particulars: mean of both orientations.

The target in assay [28] is T28, 4H48-AA.
T28 chain: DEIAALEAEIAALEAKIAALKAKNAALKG
Description: two-hybrid library CCmax. Particulars: mean of both orientations.

Assay [29] has as its target T29, 4H566-AA.
T29 chain: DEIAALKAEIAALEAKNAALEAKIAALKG
Nature of the assay: two-hybrid library CCmax. Particulars: mean of both orientations.

Assay [30] addresses T30, 4H605-AA.
T30 chain: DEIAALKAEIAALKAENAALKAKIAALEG
Nature of the assay: two-hybrid library CCmax. Particulars: mean of both orientations.

The target of assay [31] is T31, 4H678-AA.
T31 chain: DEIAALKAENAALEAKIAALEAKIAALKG
Description: two-hybrid library CCmax. Particulars: mean of both orientations.

In assay [32] the target is T32, 4H717-AA.
T32 chain: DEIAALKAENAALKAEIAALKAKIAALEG
Description: two-hybrid library CCmax. Particulars: mean of both orientations.

The target of assay [33] is T33, 4H780-AA.
T33 chain: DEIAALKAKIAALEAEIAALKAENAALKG
Nature of the assay: two-hybrid library CCmax. Particulars: mean of both orientations.

Assay [34] addresses T34, 4H794-AA.
T34 chain: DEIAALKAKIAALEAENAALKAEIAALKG
Nature of the assay: two-hybrid library CCmax. Particulars: mean of both orientations.

In assay [35] the target is T35, 4H881-AA.
T35 chain: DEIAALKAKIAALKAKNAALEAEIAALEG
Description: two-hybrid library CCmax. Particulars: mean of both orientations.

The target of assay [36] is T36, 4H906-AA.
T36 chain: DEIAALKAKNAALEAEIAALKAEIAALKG
Nature of the assay: two-hybrid library CCmax. Particulars: mean of both orientations.

The target of assay [37] is T37, 4H993-AA.
T37 chain: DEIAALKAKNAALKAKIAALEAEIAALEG
Description: two-hybrid library CCmax. Particulars: mean of both orientations.

For assay [38], the target named is T38, O8-bN.
T38 chain: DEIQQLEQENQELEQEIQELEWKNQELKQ
Description: two-hybrid library CCNG1.

Like-named read-outs stand apart in the source and are kept apart here.

B1: O9-bN (peptide)
chain: DENQQLEQKNQELKQEIQELEWEIQELEQ
In assay [1] (mean of both orientations), B1 had an interaction score of -1.9.

B2: 4H2354-AA (peptide)
chain: DKIAALEAKIAALEAKNAALEAEIAALKG
For B2, the interaction score in assay [2] is 2.28; in [3], -0.967; in assay [4] it was -1.18; in assay [5] it was 0.629; in assay [6], -1; in assay [7], 0.763. Moreover, the interaction score in assay [8] was -0.757; in [9] it was -1.03; in [10], -1.42; in assay [11] it was -0.0493; in assay [12], -1.31; in assay [13], -1.22. Further, the interaction score in assay [14] is -1.56; in [15], -1.26; in assay [16] it was 0.391; in [17], -1.47; in assay [18], -1.35; in [19], 1.11. The interaction score in [20] was -1.67; in [21] it was -0.995; in [22] it was -1.59; in assay [23], -1.28; in assay [24] it was -1.42; in assay [25], -2.02. For the same molecule, the interaction score in assay [26] was -1.58; in assay [27], -0.846; in [28], -1.39; in assay [29], 0.225; in assay [30] it was -1.45; in [31], -1.46. Further, the interaction score in assay [32] was -1.79; in [33] it was -1.35; in [34], -1.09; in assay [35] it was -0.238; in assay [36] it was -1.21; in assay [37] it was -1.38.

B3: O8-bN (peptide)
chain: DEIQQLEQENQELEQEIQELEWKNQELKQ
B3: the results for the interaction score in assay [38] and in [1] were 0.371 and -0.872, respectively.
